Patent US12448430B2 (dated 2025)

T1: Wilms tumor protein 1 (WT1) peptide on HLA-A*02:01 (human)
T1 peptide: VLDFAPPGA


What was measured:
[1] = target: T1, Wilms tumor protein 1 (WT1) peptide on …; experiment: multimer staining
[2] = target: T1, Wilms tumor protein 1 (WT1) peptide on …; experiment: killing

binding result [1] | Binder | binding result [2]
recognises | WT137-45 TCR10.1 (TCR, V domains shown) Valpha: KQEVTQIPAALSVPEGENLVLNCSFTDSAIYNLQWFRQDPGKGLTSLLLIQSSQREQTSGRLNASLDKSSGRSTLYIAASQPGDSATYLCAVKETSGSRLTFGEGTQLTVNP Vbeta: GAGVSQSPRYKVTKRGQDVALRCDPISGHVSLYWYRQALGQGPEFLTYFNYEAQQDKSGLPNDRFSAERPEGSISTLTIQRTEQRDSAMYRCASSLTGSYEQYFGPGTRLTVT | –
– | WT137-45 TCR15.1 (TCR, V domains shown) Valpha: GQNIDQPTEMTATEGAIVQINCTYQTSGFNGLFWYQQHAGEAPTFLSYNVLDGLEEKGRFSSFLSRSKGYSYLLLKELQMKDSASYLCAVRGINDYKLSFGAGTTVTVRA Vbeta: DGGITQSPKYLFRKEGQNVTLSCEQNLNHDAMYWYRQDPGQGLRLIYYSQIVNDFQKGDIAEGYSVSREKKESFPLTVTSAQKNPTAFYLCASSRDREQESPLHFGNGTRLTVT | recognises
